In assay [1] the target is T1, EpCAM-Fc (Sino hEpCAM_Fc #10694-H02H) (human, UniProt P16422 24-265).
T1 construct: Bought protein, called dimeric; also called dimeric antigen EpCAM-Fc; not shown: Fc part
T1 sequence (looked up): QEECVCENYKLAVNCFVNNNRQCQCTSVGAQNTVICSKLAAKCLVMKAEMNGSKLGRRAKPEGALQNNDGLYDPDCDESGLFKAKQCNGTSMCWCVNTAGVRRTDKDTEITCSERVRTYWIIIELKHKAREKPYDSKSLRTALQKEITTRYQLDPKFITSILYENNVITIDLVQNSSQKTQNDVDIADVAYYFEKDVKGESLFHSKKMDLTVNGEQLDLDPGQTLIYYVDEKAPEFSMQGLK
Briefly: Octet BLI, Assay 3: EpCAM-Fc coupled to AR2G sensor, bsAb in solution, 1:1 fit. As for the experimental part: (§1) Kinetic measurements were performed using the Octet RED96 platform (ForteBlo).
Antigen was coupled to Amine reactive Second generation sensors (Dip and Read Amine reactive Second-Generation (AR2G) Biosensors (Part no #18-5092 (tray)) at antigen concentrations of 0.4, 1.5, 0.25 or 0.5 μg/mL. BsAb (serially diluted ½ in 1× Kinetic buffer (ForteBio) with start concentrations of 20, 15, 10 or 25 nM) were analysed for binding to antigen-coupled sensors. The association was followed for 300 seconds and the dissociation in 1× Kinetic buffer for 300 seconds. Sensor tips were regenerated using 10 mM glycine, pH 2.2. Data generated were referenced by subtracting a parallel buffer blank, the baseline was aligned with the y-axis, inter-step correlation by alignment against dissociation was performed and the data were smoothed by a Savitzky-Golay filter in the data analysis software (v.9.0.0.14). The processed data were fitted using a 1:1 Langmuir binding model with X2 as a measurement of fitting accuracy.
On the technique in general: In BLI a coated tip is dipped into the sample, and binding shifts an interference pattern.

The target in assay [2] is T1, EpCAM-Fc (Sino hEpCAM_Fc #10694-H02H). The experiment in a line: Octet BLI, Assay 1: bsAb on FAB2G sensor, dimeric EpCAM-Fc in solution, 1:1 fit. The method, then: as §1
(§2) BsAb at 1.0 or 1.5 ug/ml where coupled to anti-human Fab-CH1 2nd generation (FAB2G) biosensors (Part no #18-5125 (tray)). Antigens were serially diluted % in 1× Kinetic buffer (ForteBio) to 100 nM, 50 nM, 25 nM, 12.5 nM, 6.25 nM, 3.125 nM, 1.56 nM or 0 nM. The association was followed for 300 seconds and the dissociation in 1× Kinetic buffer for 300 seconds. Sensor tips were regenerated using 10 mM glycine, pH 1.5. Data generated were referenced by subtracting a parallel buffer blank, the baseline was aligned with the y-axis, inter-step correlation by alignment against dissociation was performed and the data were smoothed by a Savitzky-Golay filter in the data analysis software (v.9.0.0.14). The processed data were fitted using a 1:1 Langmuir binding model with X2 as a measurement of fitting accuracy.

The target of assay [3] is T2, hEpCAM (R&D Systems #9277-EP) (human, UniProt P16422 24-265).
T2 construct: Bought protein, monomeric; also called human EpCAM; monomeric antigen EpCAM-his; not shown: His tag
T2 sequence (looked up): T1 sequence (looked up)
The experiment in a line: Octet BLI, Assay 2: bsAb on FAB2G sensor, monomeric EpCAM-his in solution, 1:1 fit. The method, then:
as §1, §2

Assay [4] has as its target T3, human EpCAM expressed on cells (human, UniProt P16422 24-314).
T3 construct: whole, on cells; also called EpCAM-transfected CHO cells; CHO-EpCAM
T3 sequence (looked up): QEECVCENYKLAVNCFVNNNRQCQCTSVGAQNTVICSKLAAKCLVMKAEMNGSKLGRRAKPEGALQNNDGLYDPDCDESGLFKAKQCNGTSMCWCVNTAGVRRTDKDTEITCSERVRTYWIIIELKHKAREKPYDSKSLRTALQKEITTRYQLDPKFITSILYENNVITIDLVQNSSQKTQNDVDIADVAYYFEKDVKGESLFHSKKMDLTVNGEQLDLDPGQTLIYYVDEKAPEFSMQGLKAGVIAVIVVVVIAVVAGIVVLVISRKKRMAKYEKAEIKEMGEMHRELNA
Briefly: flow cytometry, biotinylated antibody titrated on EpCAM-transfected and control CHO cells, streptavidin detection. From the text: The human EpCAM gene was cloned into pcDNA3.1, and the vector was subsequently stably transfected into CHO cells. Control CHO cells were stably transfected with and empty pcDNA3.1 vector. […] Binding of biotinylated antibodies was detected with fluorochrome-conjugated streptavidin and analysed using flow cytometry.
Background: In flow cytometry, cells or beads pass a laser one at a time.

The target of assay [5] is T4, CD40 on human peripheral blood mononuclear cells (human, UniProt P25942 21-277).
T4 construct: whole, on cells; also called CD40+ cell populations among PBMC (B cells, monocytes)
Briefly: flow cytometry, biotinylated antibody titrated on human PBMC (B cells, monocytes, T cells, NK cells gated), streptavidin detection. The text has this: Binding of biotinylated antibodies was detected with fluorochrome-conjugated streptavidin and analysed using flow cytometry.

For assay [6], the target named is T5, biotinylated hCD40 (504-030 from Ancell) (human, UniProt P25942 21-193, biotinylated).
T5 construct: Detection reagent of the dual ELISA
The experiment in a line: dual ELISA, bsAb captured on plate-coated hEpCAM, detected with biotinylated hCD40 and streptavidin-HRP. The method, then: Plates were coated with 0.5 μg/mL hEpCAM (R&D Systems #9277-EP) in PBS over night at 4° C. After washing in PBS/0.05% Tween 20 (PBST), the plates were blocked with PBS/0.2% BSA for at least 30 minutes at room temperature before being washed again. Samples serially diluted from 50 nM in PBS/0.02% BSA were then added and allowed to bind for at least 1 hour at room temperature. […] Dual antigen-complexed bsAb were detected with HRP-labelled streptavidin. SuperSignal Pico Luminescent was used as substrate and luminescence signals were measured using Fluostar Optima.

We go through 6 molecules from patent publication US20220073635A1 (ALLIGATOR BIOSCIENCE, published 2022).

The Kd is the equilibrium constant for the complex coming apart. A lower Kd goes with higher affinity. In general, koff refers to the first-order rate constant of dissociation. Usually kon stands for the rate constant with which the complex forms. High values mean faster complex formation, low ones slower complex formation.

Residue numbers refer to the chain shown, from its start.

T5 sequence (P25942 21-193 limits assumed): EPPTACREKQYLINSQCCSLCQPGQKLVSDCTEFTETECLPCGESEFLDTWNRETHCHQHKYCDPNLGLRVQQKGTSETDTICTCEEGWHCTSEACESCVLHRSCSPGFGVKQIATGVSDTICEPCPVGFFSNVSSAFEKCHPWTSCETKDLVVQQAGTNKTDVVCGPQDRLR
T4 sequence (P25942 21-277): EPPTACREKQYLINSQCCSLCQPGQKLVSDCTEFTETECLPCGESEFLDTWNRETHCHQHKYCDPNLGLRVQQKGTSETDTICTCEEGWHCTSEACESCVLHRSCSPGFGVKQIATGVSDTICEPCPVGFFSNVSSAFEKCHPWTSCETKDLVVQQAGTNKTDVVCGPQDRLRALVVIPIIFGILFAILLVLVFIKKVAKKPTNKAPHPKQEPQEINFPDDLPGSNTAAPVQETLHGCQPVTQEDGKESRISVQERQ

B1: 1132-3174.R (bispecific antibody)
chain 1: not shown
chain 2: ELVMTQSPSSLTVTAGEKVTMSCKSSQSLLNSGNQKNYLTWYQRKPGQPPKLLIYWASTRESGVPDRFTGSGSGTDFTLTISSVQAEDLAVYYCQNDYSYPLTFGAGTKLEIK
chain 3: DIQMTQSPSSLSASVGDRVTITCRASQSISSYLNWYQEKPGKAPKLLIYAASSLQSGVPSRFSGSGSGTDFTLTISSLQPEDFATYYCQQYGRNPPTFGQGTKLEIKRTVAAPSVFIFPPSDEQLKSGTASVVCYLNNFYPREAKVQWKVDNALQSGNSQESVTEQDSKDSTYSLWSTLTLSKADYEKHKVYACEVTHQGLSSPVTKSFNRGEC
chain 4: EVQLLEQSGAELVRPGTSVKISCKASGYAFTNYWLGWVKERPGHGLEWIGDIFPGSGNIHYNEKFKGKATLTADKSSSTAYMQLSSLTFEDSAVYFCARLRNWDEPMDYWGQGTTVTVSSASTKGPSVFPLAPSSKSTSGGTAALGCLVKDYFPEPVTVSWNSGALTSGVHTFPAVLQSSGLYSLSSVVEVPSSSLGTQTYICNVNHKPSNTKVDKKVEPKSC
In assay [1], B1 showed a Kd of 8 nM, a koff of 0.001 s⁻¹ and a kon of 100000 M⁻¹ s⁻¹.

B2: 1132-005025.M (bispecific antibody)
VH: EVQLLESGGGLVQPGGSLRLSCAASGFTFSSYAMSWVRQAPGKGLEWVSGIGSYGGGTYYADSVKGRFTISRDNSKNTLYLQMNSLRAEDTAVYYCARYVNFGMDYWGQGTLVTVSS
VL: DIQMTQSPSSLSASVGDRVTITCRASQSISSYLNWYQQKPGKAPKLLIYAASSLQSGVPSRFSGSGSGTDFTLTISSLQPEDFATYYCQQYGRNPPTFGQGTKLEIK
scFv: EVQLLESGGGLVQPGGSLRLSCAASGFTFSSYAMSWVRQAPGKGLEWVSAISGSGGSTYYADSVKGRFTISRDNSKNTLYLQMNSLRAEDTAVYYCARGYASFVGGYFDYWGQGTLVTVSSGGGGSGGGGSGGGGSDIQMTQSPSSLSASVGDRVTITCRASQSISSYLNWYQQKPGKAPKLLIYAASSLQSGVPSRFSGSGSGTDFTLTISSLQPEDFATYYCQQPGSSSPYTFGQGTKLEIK
notes: also called CD40-EpCAM bispecific antibody in the Morrison format
As for B2, in assay [2], the affinity, expressed as Kd, was 4 nM; the koff amounted to 0.001 s⁻¹; the kon was 300000 M⁻¹ s⁻¹. In assay [3], binding was put at a Kd of 300 nM, the koff worked out at 0.01 s⁻¹ and the kon came out at 30000 M⁻¹ s⁻¹.

B3: 1132.m2 (antibody, V domains shown)
VH: B2 VH
VL: B2 VL
notes: also called LALA-mutated agonistic monoclonal CD40 antibody
In the case of B3, the values for the binding result in assay [4] and in assay [5] were “no binding” and “binds”, respectively.

B4: 1132-3174.M (bispecific antibody, V domains shown)
VH 1: B2 VH
VL 1: B2 VL
VH 2: EVQLLEQSGAELVRPGTSVKISCKASGYAFTNYWLGWVKQRPGHGLEWIGDIFPGSGNIHYNEKFKGKATLTADKSSSTAYMQLSSLTFEDSAVYFCARLRNWDEPMDYWGQGTTVTVSS
VL 2: B1 chain 2 with R44Q
notes: as for B2
In the case of B4, in assay [2], the Kd worked out at 0.5 nM, the koff amounted to 8e-05 s⁻¹ and the kon was 200000 M⁻¹ s⁻¹. Moreover, in assay [3], the Kd is 500 nM, the koff turned out to be 0.01 s⁻¹ and the kon is 20000 M⁻¹ s⁻¹. In assay [6], the binding result is given as “binds”.

B5: 1132-005038.M (bispecific antibody)
VH: B2 VH
VL: B2 VL
scFv: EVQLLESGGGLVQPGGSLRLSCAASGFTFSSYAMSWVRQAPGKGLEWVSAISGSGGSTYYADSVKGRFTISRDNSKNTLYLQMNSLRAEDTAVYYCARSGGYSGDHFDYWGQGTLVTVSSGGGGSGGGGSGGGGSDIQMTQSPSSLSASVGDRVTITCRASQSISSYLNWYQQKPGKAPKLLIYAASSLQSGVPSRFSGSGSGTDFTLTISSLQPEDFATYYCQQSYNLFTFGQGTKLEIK
notes: as for B2
In assay [2], B5 had a Kd of 6 nM, a koff of 0.002 s⁻¹ and a kon of 300000 M⁻¹ s⁻¹. Moreover, in assay [3], the Kd is 1000 nM, the koff amounted to 0.01 s⁻¹ and the kon was 8000 M⁻¹ s⁻¹.

B6: 1132-3188.M (bispecific antibody, V domains shown)
VH 1: B2 VH
VL 1: B2 VL
VH 2: EVQLVQSGPGLVQPGGSVRISCAASGYTFTNYGMNWVKQAPGKGLEWMGWINTYTGESTYADSFKGRFTFSLDTSASAAYLQINSLRAEDTAVYYCARFAIKGDYWGQGTLLTVSS
VL 2: DIQMTQSPSSLSASVGDRVTITCRSTKSLLHSNGITYLYWYQQKPGKAPKLLIYQMSNLASGVPSRFSSSGSGTDFTLTISSLQPEDFATYYCAQNLEIPRTFGQGTKVELK
notes: also called CD40-EpCAM bispecific antibody in the Morrison format; 3188 = 4D5MOCB = BM1
In the case of B6, in assay [2], the Kd was less than 0.001 nM, the koff was less than 1e-07 s⁻¹ and the kon was 300000 M⁻¹ s⁻¹. In assay [3], this molecule came in with a Kd of 30 nM, a koff of 0.004 s⁻¹ and a kon of 100000 M⁻¹ s⁻¹.
